In the nanobody polyreactivity screen of Harvey et al. (2022):

assay: yeast display, Sf9 membrane polyspecificity reagent, FACS + sequencing; frameworks hold sequencing errors
Procedure, shortened: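 In a synthetic yeast display library (Saccharomyces cerevisiae BJ5465), nanobody expression was induced with galactose for 36–48 hours. FACS gates were set low and high (top ~1%) using anti-HA fluorescence for expression and streptavidin fluorescence for binding of the Sf9 membrane reagent. Each polyreactivity label is drawn from the gate of origin.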

| Sequence | polyreactivity (PSR sort gate) |
| --- | --- |
| QVQLVESGGGLVQAGGSLRLSCASSGRIFYYNAMGWYRQAPGKERELVAAISKRGGITSYADSVKGRFTISRDNAKNTVYLPMNSLKPEDTAVYYCAADLVPWRGGYYYWGQGTLVTVSS | high polyreactivity |
| QVHLVESGGGLVQAGGSLRLSCAASGSIFYYYGMGWYRQAPGIERELVAAISSGGRTYYADSVKGRFTISRDNAKNTVYLQMDSLKPEDTAVYYCAKPGSYAVYSGWHDYWGQGTQVTVSS | high polyreactivity |
| QVQLVESGGGLVQAGGSLRLSCAASGRTFNNNAMGWYRQAPGKERELVAAITSGGSTNYADSVKGRFTISRDNAKNTVYLQMNSLKPEDTAVYYCNAGYYSRRYYFSGRLDYWGQGTQVTVSS | low polyreactivity |
| QVQLVESGGGLVQAGGSLRLSCAASGRTFDGYDMGWYRQAPGQERELVAAINVVGGSTYYADSVKGRFTISRDNAKNTVYLQMNSLKPEDTAVYYCAADDYIYTVYSYTYEYWGQGTQVTVSS | low polyreactivity |
| QVQLVESGGGLVQAGGSLRLSCAASGRTFWTKAMGWYRQAPGKEREFVAAISWRGASTFYADSVKGRFTISRDNAKNTVYLQMNSLKPEDTAVYYCAAESYIGKYGSYDYWGQGTQVTVSS | low polyreactivity |
| QVLLQESGGGLVQAGGSLRLSCAASGSIFLFYTMGWNRQAPVKEREFVAGITLGTTTYNADSVKGRFTISRDNVKNTVYLQKNSLKPEDTAVYYCAVAVGHYTEFWYWGQGTQVTMSS | high polyreactivity |
| QVQLVESVGCLVQAGGSLRLSCAASGSTFDYYAMGWYRQAPGKERELVAAITSTGRTYYADSVKGRFTISRDNAKNTVYLQMNSLKPEDTAVYYCAADLPWGPLFDYWGQGTQVTVSS | low polyreactivity |
| QVQLVESGRGLVQAGGSLRLSCAPSGRIFKYYAKGWYRQAPGKERELVATITSGANTNYADSVKGRFTISRDNAKNTVYLQMNSLKPEDTAVYYCNADLDPRDYGFDYWGQGTQVTVSS | high polyreactivity |
| QVQLVESGGGLVQAGGSLRLSCAASGITFHSYAMGWYRQAPGKERELVAGISSGGSTNYADSVKGRFTISRDNAKNTVYLQMNSLKPEDTAVYYCAVLNHRVDSVLTRYYYWGQGTQVTVSS | low polyreactivity |
| QVQLVESGGGLVQAGGSLRLSCAASGSIFVTYAMGWYRQAPGKERELVARITSGGSTYYADSVKGRFTISRDNAKNTVYLQMNRQKPEDTAVYYCAARRWLRYDLDYWGQGTQVTVSS | low polyreactivity |
| QDQLVESGGGLDQAGGSLRLSCAASGRILIIYAMGWYRQAPGKERELVARITYTGGRTYYADSVKGRFTISRDNAKNTVYLQMTSLKPEDTAVYYCATVWSRSDSSSHYDYWGQGTQVTVSS | low polyreactivity |
| QVQLVESGGGLVQAGGSLRLSCAASGSIFPYNVMGWYRQAPGKERELVAAITTGGRTNYADSVKGRFTISRDNAKNTVYLQMNSLKPEDTAVYYCAARYGYYDSRRWYYYWGQGTQVTVSS | high polyreactivity |
| QVQLVESGGGLVQAGGSLRLSCAASGSIFWNYAMGWYRQAPGKEREFVASISRSGGSTYYADSVKGRFTISRDNAKNTVYLQMNSLKPEDTAVYYCAARGVKISYNYWGQGTQVTVSS | high polyreactivity |
| QVHLVESGGGLVQAGGSLRLICAASGRTFWYYAMGWYRQAPGKERELVAAITSGGSTNYADSVKRRFTISRDNAKNTVYLQMNILKPEDTAVYYCATDNPVFEYDYCGQGTQVTVSS | low polyreactivity |
| QVQHVESGGGLVQAGGSLRLSCAASGFTFYRYTMGWYRQAPGKERELVAAISRGGRTYYADSVKGRFTISRDNAKNTVYLQMNSLKPEDTAVYYCAARTWIARRGRYNYWGQGTQVTVSS | high polyreactivity |
| QVQLVESGGGLVQAGGSLRVSCAASGFIFTGYTMGWYRQAPGKERELLAAVSYRGGSTYYADSVKGRFTISRDNAKNTVYLQMNSLKPEDTAVNYCNAVWSNFRLGYDYWGQGTQVTVSS | high polyreactivity |
